# Source: IntAct's records for PubMed 12829691
# B1: E3 ubiquitin-protein ligase CBL-B (Homo sapiens), Q13191 (parent)
# chain: MANSMNGRNPGGRGGNPRKGRILGIIDAIQDAVGPPKQAAADRRTVEKTWKLMDKVVRLCQNPKLQLKNSPPYILDILPDTYQHLRLILSKYDDNQKLAQLSENEYFKIYIDSLMKKSKRAIRLFKEGKERMYEEQSQDRRNLTKLSLIFSHMLAEIKAIFPNGQFQGDNFRITKADAAEFWRKFFGDKTIVPWKVFRQCLHEVHQISSGLEAMALKSTIDLTCNDYISVFEFDIFTRLFQPWGSILRNWNFLAVTHPGYMAFLTYDEVKARLQKYSTKPGSYIFRLSCTRLGQWAIGYVTGDGNILQTIPHNKPLFQALIDGSREGFYLYPDGRSYNPDLTGLCEPTPHDHIKVTQEQYELYCEMGSTFQLCKICAENDKDVKIEPCGHLMCTSCLTAWQESDGQGCPFCRCEIKGTEPIIVDPFDPRDEGSRCCSIIDPFGMPMLDLDDDDDREESLMMNRLANVRKCTDRQNSPVTSPGSSPLAQRRKPQPDPLQIPHLSLPPVPPRLDLIQKGIVRSPCGSPTGSPKSSPCMVRKQDKPLPAPPPPLRDPPPPPPERPPPIPPDNRLSRHIHHVESVPSRDPPMPLEAWCPRDVFGTNQLVGCRLLGEGSPKPGITASSNVNGRHSRVGSDPVLMRKHRRHDLPLEGAKVFSNGHLGSEEYDVPPRLSPPPPVTTLLPSIKCTGPLANSLSEKTRDPVEEDDDEYKIPSSHPVSLNSQPSHCHNVKPPVRSCDNGHCMLNGTHGPSSEKKSNIPDLSIYLKGDVFDSASDPVPLPPARPPTRDNPKHGSSLNRTPSDYDLLIPPLGEDAFDALPPSLPPPPPPARHSLIEHSKPPGSSSRPSSGQDLFLLPSDPFVDLASGQVPLPPARRLPGENVKTNRTSQDYDQLPSCSDGSQAPARPPKPRPRRTAPEIHHRKPHGPEAALENVDAKIAKLMGEGYAFEEVKRALEIAQNNVEVARSILREFAFPPPVSPRLNL
# Variants of: B1
# Conditions: with sh3k1_human SH3KBP1, Q96B97
# sh3k1_human SH3KBP1, Q96B97, sequence (Q96B97 whole entry): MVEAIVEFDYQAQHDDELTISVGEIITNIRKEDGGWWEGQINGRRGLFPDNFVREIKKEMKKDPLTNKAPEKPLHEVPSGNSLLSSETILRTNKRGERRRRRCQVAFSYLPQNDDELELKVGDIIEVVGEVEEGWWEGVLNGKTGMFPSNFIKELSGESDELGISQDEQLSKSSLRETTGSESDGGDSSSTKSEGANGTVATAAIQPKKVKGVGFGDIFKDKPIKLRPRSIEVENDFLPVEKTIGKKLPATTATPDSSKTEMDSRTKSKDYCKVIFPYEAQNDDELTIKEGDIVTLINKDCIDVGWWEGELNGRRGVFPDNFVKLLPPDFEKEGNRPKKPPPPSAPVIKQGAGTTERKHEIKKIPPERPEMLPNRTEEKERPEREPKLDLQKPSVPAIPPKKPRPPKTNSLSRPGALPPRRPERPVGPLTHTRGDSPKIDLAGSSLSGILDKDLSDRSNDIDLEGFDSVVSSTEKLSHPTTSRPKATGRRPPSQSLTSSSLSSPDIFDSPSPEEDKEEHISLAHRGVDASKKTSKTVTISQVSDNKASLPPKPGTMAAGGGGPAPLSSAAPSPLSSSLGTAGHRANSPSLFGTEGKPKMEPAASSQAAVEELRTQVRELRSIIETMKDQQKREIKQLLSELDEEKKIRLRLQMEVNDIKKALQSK
row,effect of a mutation on the interaction,Variant
1,decreasing interaction,R911A
